Results from article PMC10705377.

Molecular target: GluA2-TARPγ2 fusion construct (rat GluA2, GT linker, mouse TARPγ2 truncated following M4) (rat | mouse)
Assay: cryo-EM structure

stoichiometry N: 4
Substance: GluA2-TARPγ2 fusion construct (rat GluA2, GT linker, mouse TARPγ2 truncated following M4) (receptor)
